One block for each binder: values may come before it.
B3: GST-Rad27 (natural protein, yeast, UniProt P26793 1-382, looked up)
chain: MGIKGLNAIISEHVPSAIRKSDIKSFFGRKVAIDASMSLYQFLIAVRQQDGGQLTNEAGETTSHLMGMFYRTLRMIDNGIKPCYVFDGKPPDLKSHELTKRSSRRVETEKKLAEATTELEKMKQERRLVKVSKEHNEEAQKLLGLMGIPYIIAPTEAEAQCAELAKKGKVYAAASEDMDTLCYRTPFLLRHLTFSEAKKEPIHEIDTELVLRGLDLTIEQFVDLCIMLGCDYCESIRGVGPVTALKLIKTHGSIEKIVEFIESGESNNTKWKIPEDWPYKQARMLFLDPEVIDGNEINLKWSPPKEKELIEYLCDDKKFSEERVKSGISRLKKGLKSGIQGRLDGFFQVVPKTKEQLAAAAKRAQENKKLNKNKNKVTKGRR

Assays:
Experiment in all cases: cell-based or functional assay
GST-Rad27 = molecular target: B3
[1] = molecular target: T1, Mus81_(Δ21–24) of Mus81_(Δ21–24)–Mms4_(Δ40N) (S. cerevisiae, UniProt Q04149 1-632, Δ21–24)
T1 sequence (looked up): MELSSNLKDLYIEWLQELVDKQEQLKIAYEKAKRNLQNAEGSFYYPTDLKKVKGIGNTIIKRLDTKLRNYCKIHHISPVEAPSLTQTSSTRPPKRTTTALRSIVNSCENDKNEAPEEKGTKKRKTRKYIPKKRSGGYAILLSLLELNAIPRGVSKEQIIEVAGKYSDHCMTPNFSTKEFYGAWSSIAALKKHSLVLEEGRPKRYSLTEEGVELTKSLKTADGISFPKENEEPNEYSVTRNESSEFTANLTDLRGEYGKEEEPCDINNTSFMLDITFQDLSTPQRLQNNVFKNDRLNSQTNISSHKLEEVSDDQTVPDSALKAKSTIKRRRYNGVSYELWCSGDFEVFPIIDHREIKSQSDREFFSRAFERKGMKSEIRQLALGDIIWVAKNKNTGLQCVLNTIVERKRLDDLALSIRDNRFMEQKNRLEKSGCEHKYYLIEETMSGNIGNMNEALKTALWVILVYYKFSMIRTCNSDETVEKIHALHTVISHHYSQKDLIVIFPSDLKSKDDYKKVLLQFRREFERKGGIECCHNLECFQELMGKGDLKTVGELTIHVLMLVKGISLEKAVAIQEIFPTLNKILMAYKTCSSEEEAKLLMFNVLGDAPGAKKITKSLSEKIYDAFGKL

[2] = molecular target: T2, Mus81_(Δ21–22) of Mus81_(Δ21–22)–Mms4_(Δ40N) (S. cerevisiae, UniProt Q04149 1-632, Δ21–22)
T2 sequence (looked up): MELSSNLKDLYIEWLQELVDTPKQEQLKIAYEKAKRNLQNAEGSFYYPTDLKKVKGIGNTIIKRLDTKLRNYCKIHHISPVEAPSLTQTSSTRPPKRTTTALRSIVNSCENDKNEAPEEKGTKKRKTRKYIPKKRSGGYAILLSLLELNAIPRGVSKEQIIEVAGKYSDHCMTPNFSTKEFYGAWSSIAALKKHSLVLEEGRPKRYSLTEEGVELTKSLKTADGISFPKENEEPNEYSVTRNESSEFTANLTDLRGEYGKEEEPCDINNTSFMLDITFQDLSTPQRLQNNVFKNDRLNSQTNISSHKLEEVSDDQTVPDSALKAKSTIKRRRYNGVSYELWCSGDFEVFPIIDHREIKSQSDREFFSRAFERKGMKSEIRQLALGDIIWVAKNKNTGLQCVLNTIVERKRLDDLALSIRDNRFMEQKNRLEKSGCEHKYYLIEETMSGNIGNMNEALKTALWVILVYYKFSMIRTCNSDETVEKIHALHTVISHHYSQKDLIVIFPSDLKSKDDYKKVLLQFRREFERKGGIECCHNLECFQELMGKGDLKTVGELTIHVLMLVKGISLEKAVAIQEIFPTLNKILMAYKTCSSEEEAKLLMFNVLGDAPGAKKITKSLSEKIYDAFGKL

stimulation of Rad27 (0.1 fmol) cleavage of 5′DF substrate by the Mus81–Mms4 complex (0, 25, 50 fmol; ∼2–4 fold told of the Mus81 complexes) (GST-Rad27): 2 to 4 fold
B1: Mms4 of the wild-type Mus81–Mms4 complex (natural protein, budding yeast, UniProt P38257 1-691, looked up)
chain: MSQIVDFVEDKDSRNDASIQIIDGPSNVEIIALSESMDQDECKRAHVSSAEMIPSSPQRKSVSNDVENVDLNKSIELSAPFFQDISISKLDDFSTTVNSIIDSSLRNENNAKGNAKKLLDDLISDEWSADLESSGKKHNKSQYNLRDIAEKWGVQSLKNPEPIAVDCEYKTQGIGKTNSDISDSPKSQIGAADILFDFPLSPVKHENPTEEKHNSIANENSSPDNSLKPAGKQNHGEDGTSMAKRVYNKGEDEQEHLPKGKKRTIALSRTLINSTKLPDTVELNLSKFLDSSDSITTDVLSTPAKGSNIVRTGSQPIFSNANCFQEAKRSKTLTAEDPKCTKNTAREVSQLENYIAYGQYYTREDSKNKIRHLLKENKNAFKRVNQIYRDNIKARSQMIIEFSPSLLQLFKKGDSDLQQQLAPAVVQSSYNDSMPLLRFLRKCDSIYDFSNDFYYPCDPKIVEENVLILYYDAQEFFEQYTSQKKELYRKIRFFSKNGKHVILILSDINKLKRAIFQLENEKYKARVEQRLSGTEEALRPRSKKSSQVGKLGIKKFDLEQRLRFIDREWHVKIHTVNSHMEFINSLPNLVSLIGKQRMDPAIRYMKYAHLNVKSAQDSTETLKKTFHQIGRMPEMKANNVVSLYPSFQSLLEDIEKGRLQSDNEGKYLMTEAVEKRLYKLFTCTDPNDTIE

stimulation of Rad27 (0.1 fmol) cleavage of 5′DF substrate by the Mus81–Mms4_(Δ40N) and Mus81_(Δ120N)–Mms4_(Δ40N) complexes (0, 25, 50 fmol; ∼2–4 fold told of the Mus81 complexes) (GST-Rad27): 2 to 4 fold
B2: Mms4_(Δ40N) (domain or fragment, budding yeast, UniProt P38257 41-691, looked up)
chain: ECKRAHVSSAEMIPSSPQRKSVSNDVENVDLNKSIELSAPFFQDISISKLDDFSTTVNSIIDSSLRNENNAKGNAKKLLDDLISDEWSADLESSGKKHNKSQYNLRDIAEKWGVQSLKNPEPIAVDCEYKTQGIGKTNSDISDSPKSQIGAADILFDFPLSPVKHENPTEEKHNSIANENSSPDNSLKPAGKQNHGEDGTSMAKRVYNKGEDEQEHLPKGKKRTIALSRTLINSTKLPDTVELNLSKFLDSSDSITTDVLSTPAKGSNIVRTGSQPIFSNANCFQEAKRSKTLTAEDPKCTKNTAREVSQLENYIAYGQYYTREDSKNKIRHLLKENKNAFKRVNQIYRDNIKARSQMIIEFSPSLLQLFKKGDSDLQQQLAPAVVQSSYNDSMPLLRFLRKCDSIYDFSNDFYYPCDPKIVEENVLILYYDAQEFFEQYTSQKKELYRKIRFFSKNGKHVILILSDINKLKRAIFQLENEKYKARVEQRLSGTEEALRPRSKKSSQVGKLGIKKFDLEQRLRFIDREWHVKIHTVNSHMEFINSLPNLVSLIGKQRMDPAIRYMKYAHLNVKSAQDSTETLKKTFHQIGRMPEMKANNVVSLYPSFQSLLEDIEKGRLQSDNEGKYLMTEAVEKRLYKLFTCTDPNDTIE

Binder: B3
extent of stimulation by Rad27 of the endonuclease activity of Mus81_(Δ21–24)–Mms4_(Δ40N) on 3′F substrate, over increasing amounts of Rad27 (∼3–6-fold) [1]: ~6 fold | extent of stimulation by Rad27 of the endonuclease activity of Mus81_(Δ21–22)–Mms4_(Δ40N) on 3′F substrate, over increasing amounts of Rad27 (∼5–12-fold) [2]: ~12 fold
